In article PMC9728131, “Host acid signal controls Salmonella flagella biogenesis through CadC-YdiV axis”:

B1: 19 nt overlap DNA of ydiV promoter (dsDNA)
DNA 1: TCATCATATATAATGATAT
DNA 2: ATATCATTATATATGATGA

Experiments:
[1] = biological target: T1, CadCc (Escherichia coli K-12 MG1655 (cloning template per Methods; text discusses Salmonella CadC)) (UniProt P23890); test: BLI; conditions: EMSA: 20 mM Tris-HCl pH 8.0, 100 mM NaCl, 1 mM MgCl2, 1 mM ZnCl2, 4% glycerol, RT 10 min (competition 4 C, 30 min + 30 min); BLI: PBS + 1 mM ZnCl2 (CadCc …)
T1 sequence: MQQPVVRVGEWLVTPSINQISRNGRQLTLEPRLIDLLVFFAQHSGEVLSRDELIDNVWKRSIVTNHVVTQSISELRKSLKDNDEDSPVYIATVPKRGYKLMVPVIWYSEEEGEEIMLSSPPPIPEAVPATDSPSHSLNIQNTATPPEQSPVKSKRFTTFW

H-NS = biological target: T2, H-NS (Escherichia coli K-12 MG1655 (cloning …, UniProt P0ACF8 1-137)); test: BLI; PBS without ZnCl2; printed unit umoL; kdis 0.0145/s; EMSA: 20 mM Tris-HCl pH 8.0, 100 mM NaCl, 1 mM MgCl2, 1 mM ZnCl2, 4% glycerol, RT 10 min (competition 4 C, 30 min + 30 min); BLI: PBS + 1 mM ZnCl2 (CadCc, 50 ug/mL) or PBS (H-NS), 25 C; footprinting: 30 C, 30 min; conditions: protein: recombinant; tags: N-terminal 6xHis (pGL01); chain copies: 2; Methods: 'C-terminus'); blunt
T2 sequence: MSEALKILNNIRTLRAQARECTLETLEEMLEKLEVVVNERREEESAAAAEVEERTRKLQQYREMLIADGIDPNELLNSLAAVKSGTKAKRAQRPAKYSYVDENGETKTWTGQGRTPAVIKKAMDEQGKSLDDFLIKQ

Molecule	Kd [1] [nM]	Kd (H-NS) [nM]
TCATCATATATAATGATAT (double strand) [19 nt overlap DNA of ydiV promoter]	203	–
B1	–	533 ± 12.7
